In patent US20050221400A1:

B1: Ha1-4.37 (antibody, V domains shown)
VH: PGALQESGPGLVRPSQTLSLTCTVSGGSISSGGTYYWIWIRQHPGKGLEWIGYIYYSGSTYYNPSLKSRVTISVDTSKNQFSLKLSSVTAADTAVYYCARDGITMVRGISGGMDVWGQGTTVTVSS
VL: ASVGDRVTITCRASQSISSHLNWYQQKPGKAPKLLIYAASSLQSGVPSRFSGSGSGTDFTLSISSLQPEDFATYFCQQSYSIPRTFGQGTKVEITR
B2: Ha1-5.99 (antibody, IgG2, V domains shown)
VH: QVHLQQWGAGLLKPSETLSLTCAVYGGSFSGYYWSWIRQPPGKGLEWIGEINHSGSTSYKPSLKSRVTVSVDTSKNQFSLKLSYVTAADTAVYYCARDRGDYGDFLFDYWGQGTLVTVSS
VL: SPGERATLSCRASQSIGSTYLAWYQQKPGQAPRLLIYGASSRATGIPERFSGSGSGTDFTLTISGLEPEDFAVFYCQQCGSSPPTFGQGTKVEIKR

Biological target: PSCA (prostate stem cell antigen), human, PSCA v.1 (human) (UniProt O43653)
Test: FACS titration on SW780 cells, anti-hIgG-PE, Graphpad Prism sigmoidal dose-response fit

| Binder | Kd [nM] |
| --- | --- |
| B1 | 0.23 |
| B2 | 0.28 |
